Assay: yeast display, Sf9 membrane polyspecificity reagent, FACS + sequencing; frameworks hold sequencing errors
How it was run: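 Synthetic nanobody libraries on Saccharomyces cerevisiae BJ5465 were galactose-induced for 36–48 hours, stained 1 hour at 4 °C with 10% biotinylated, detergent-solubilized Sf9 membrane reagent and enriched on streptavidin microbeads. FACS then separated cells into low and high (top ~1%) gates by anti-HA (expression) and streptavidin (reagent binding) fluorescence. Genes were colony-PCR amplified, MiSeq 2 × 250 sequenced and CDR-length filtered. A clone's polyreactivity label is that of its gate of origin.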
With “QVQLQESGGGLVQAGGSLRLSCAASGSISAVGAMGWYRQAPGKEREFAASVNWGTNTNYADSVKGRFTISRDNAKTTLYLQMNSLKPEDTAVYYCAADVQITSAGGDYDYWGQGTQVTVSS” the “polyreactivity (PSR sort gate)” value was “low polyreactivity”. For “QVQLQESGGGLVQAGGSLRLSCAASGSISGPQVMVWYRQAPGKEREFVAAINVGANTYYADNVKGRFTISRDNAKNTVYLQMNSLKPEDTAVYYCAAVYYGDIGHESWGQGTQVTVSC”, the “polyreactivity (PSR sort gate)” value was “low polyreactivity”. In the case of “QVQLQESGGGLVQAGGSLRLSCAASGSISLGRGMGWYRQAPGKREFVVTIAASVNWGTNTNYADSVKGRFTISRDNAKNTLYLQMNSLKPEDTAVYYCAVLPEWETRHDYWGHGTQVTVSS”, the “polyreactivity (PSR sort gate)” value is reported as “low polyreactivity”. In the case of “QVQLQESGGGLVQAGGSLRLSCAASGSISRLDYRGWYRQASGKERELVAAIDNGSTTYYADSVKGRLTISRDNAKYTVYLQMNSLKPEDTAVYFCAAVRGRGGTHAYWGQGTQVTVSG”, the “polyreactivity (PSR sort gate)” value is reported as “low polyreactivity”. In the case of “QVQLQESGGGLVQAGGSLRLSCAASGSISYPRTMGWYREAPGKEREFVAGIGVGGTTYYADSVKGRFTISRDNAKNTVYLQMNSLKPEDAAVYYCAVAAYYDKYYVYWGQGTQVTVSC”, the “polyreactivity (PSR sort gate)” value is reported as “low polyreactivity”. With “QVQLQESGGGLVQAGGSLRLSCAASGSLFLFYTMGWYRQAPVIEREFVAGITLGTTTYNADSVKGRFTISRDNVKNTVFLQMNSLKPEDTAVYYCAVAVGHYTEFWYWGQGTQVTMSS” the “polyreactivity (PSR sort gate)” value was “high polyreactivity”. For “QVQLQESGGGLVQAGGSLRLSCAASGTIFRFRYMGWHRQAPGKERELVAGINGGTTTYYADSVIGRFTISRDNAKNTVYLHMNCLKPDDTAVYNCAAGASRLTYYDYWGQGTQVTVSS”, the “polyreactivity (PSR sort gate)” value was “low polyreactivity”. With “QVQLQESGGGLVQAGGSLRLSCAASGTIFRFRYMGWHRQAPGTERELVAGINGGTTTYYADSVIGRFTISRDNAKNTVYLQMNSLKPDDTAVYNCAAGASRLTYYDYWGQGTQVTVSS” the “polyreactivity (PSR sort gate)” value was “low polyreactivity”. With “QVQLQESGGGLVQAGGSLRLSCAASGTIFTARFMGWYRQAPGKERELVATITDGGNTNHADSVKGRFTISRDNAKNTVYLQMNSLKPEDAAVYFCAAGEVDNDTLLYWGQGSQVTVSS” the “polyreactivity (PSR sort gate)” value was “low polyreactivity”. For “QVQLQESGGGLVQAGGSLRLSCAASGTIFWLWAMGWYCKAPGKERELVASISSGGTTYHADSVKGRFTISRDNAKNTVYLQMNSLKPEDTAVYYSAAFYVATAKLGYWGQGSQVTVSS”, the “polyreactivity (PSR sort gate)” value was “low polyreactivity”. With “QVQLQESGGGLVQAGGSLRLSCAASGTIFWLWAMGWYCPAPGKERELVASISSGGTTYHADSVKGRFTISRDNAKNTVYLQMNSLKPEDTAVYYSAAFYVATAKLGYWGQGSQVTVSS” the “polyreactivity (PSR sort gate)” value was “low polyreactivity”. In the case of “QVQLQESGGGLVQAGGSLRLSCAASGTISDRAGMGWYRQAPAKNAIVATIDRGTNTNYADSVKGRFTISRDNAKNPVYLKMNSLKPEDTAVYNWAADGRYYIYLDYWGQGTQVTVSS”, the “polyreactivity (PSR sort gate)” value is reported as “low polyreactivity”. For “QVQLQESGGGLVQAGGSLRLSCAASGTISDSGLKGWYRQAPGIERELVAGISSGGITNYADSVKGRFTISRDNAQNTVYLQMNSLKPVDTAVYWGQGTQLTVSS”, the “polyreactivity (PSR sort gate)” value was “low polyreactivity”. In the case of “QVQLQESGGGLVQAGGSLRLSCAASGTISLGDNMGWYRQAPGKEREFVATISVGGITYYVDSVKGRFTISRDIAKNTVYLQMNSLKPEDTAVYYCAALDIYYFRYYYWGQGTQVTVSS”, the “polyreactivity (PSR sort gate)” value is reported as “low polyreactivity”. In the case of “QVQLQESGGGLVQAGGSLRLSCAASGTISPLPAMGWYRQAPGKEREFVAGIDTGAITNYADSVKGRFTISRDNAKNTVYLQMNSLIAEDTAVYYCAVFPAAYDYYERYYTYWGQGTQVTVSS”, the “polyreactivity (PSR sort gate)” value is reported as “low polyreactivity”. In the case of “QVQLQESGGGLVQAGGSLRLSCAASGTISQEDRMGWYRQAPGKEREFVAAIGLGSNTNYADSLKGRFTISRDNAKNTVYLQMNSLKPEDTAVYYCAVSVWQYSDHVYRGQGTQVTVSS”, the “polyreactivity (PSR sort gate)” value is reported as “low polyreactivity”. In the case of “QVQLQESGGGLVQAGGSLRLSCAASGTISQEDWMGWYRQAPGKEREFVAAIGLGSNTNYADSLKGRFTMSRDNAKNTVYLQMNSLKPEDTAVYYCAVSVWQYSDHVYRGQGTQVTVSS”, the “polyreactivity (PSR sort gate)” value is reported as “low polyreactivity”. For “QVQLQESGGGLVQAGGSLRLSCAASGTISTDSYMGWYRQAPGKERKFVATIGYGGITYYADSVKGRSTISRDSAKNTVYLQMNSLKPEDTAVYYCAVNSYYPDHYWYWGRGTQVTVSS”, the “polyreactivity (PSR sort gate)” value was “high polyreactivity”.
